The values that follow come from US20150355179A1, “CDKACT BIOSENSORS-FLUORESCENT POLYPEPTIDE TO PROBE THE ACTIVITY OF CDK/CYCLIN KINASES IN VITRO, IN CELLULO AND IN VIVO” (CENTRE NATIONAL DE LA RECHERCHE SCIENTIFIQUE (CNRS), priority 2012, published 2015).

Data set [1] is described as follows: Solubility of the biosensor after removal of the GST tag. Format: physicochemical. The protocol: The […]1 biosensor was engineered by cloning residues 367-603 of PBD from Plk1 into the pGex6[…]. […]1 was expressed in E. coli, then purified on High performance glutathione Sepharose in 50 mM TrisHCl, pH 7.4, 150 mM NaCl, then further purified by Gel Filtration chromatography. […] Following purification, […]1 was labelled with a 10fold molar excess Cy3-maleimide and further purified on NAPS columns to remove excess label.

The target in data set [2] is T1, GST-CDK2/Cyclin A (Homo sapiens, UniProt P24941).
T1 construct: made in house; host or cells: E. coli
Briefly: Radioactive endpoint kinase assay with GST-CDK2/Cyclin A. The class given is biochemical. The following applies: radioactive gamma-ATP, 30 min at 30° C., histone H1 positive control. The protocol:
In order to characterize […]1 biosensor in vitro, we first asked whether it could be used to monitor recombinant kinase activity in a real-time assay. […] A kinase assay was performed by addition of GST-CDK2/CIV complexed with His-Cyclin A to […]1, in the presence of 0.5 mM ATP and 5 mM MgCl2, and […]1 fluorescence was monitored over time. Phosphorylation of 5 uM […]1 or histone H1 were performed in 50 mM Tris pH 7.5, 5 mM MgCl2, 0.5 mM ATP, and 33P-gamma-ATP for 30 min at 30° C. The reaction was stopped by addition of Laemmli buffer, and samples were run on SDS-PAGE then exposed by autoradiography.

For data set [3], the target named is T2, GST-CDK1-Cyclin B (Homo sapiens, UniProt P06493).
T2 construct: made in house; host or cells: E. coli
T2 sequence (P06493 whole entry, species assumed): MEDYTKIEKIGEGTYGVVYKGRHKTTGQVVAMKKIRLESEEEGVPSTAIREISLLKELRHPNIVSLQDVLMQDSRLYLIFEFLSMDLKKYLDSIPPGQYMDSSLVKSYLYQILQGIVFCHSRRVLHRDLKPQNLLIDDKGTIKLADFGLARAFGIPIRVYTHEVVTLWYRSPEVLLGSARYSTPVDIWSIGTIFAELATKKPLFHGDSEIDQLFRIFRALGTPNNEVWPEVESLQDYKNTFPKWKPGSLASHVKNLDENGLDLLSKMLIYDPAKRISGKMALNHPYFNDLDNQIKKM
T2 sequence (P14635 whole entry partner, species assumed): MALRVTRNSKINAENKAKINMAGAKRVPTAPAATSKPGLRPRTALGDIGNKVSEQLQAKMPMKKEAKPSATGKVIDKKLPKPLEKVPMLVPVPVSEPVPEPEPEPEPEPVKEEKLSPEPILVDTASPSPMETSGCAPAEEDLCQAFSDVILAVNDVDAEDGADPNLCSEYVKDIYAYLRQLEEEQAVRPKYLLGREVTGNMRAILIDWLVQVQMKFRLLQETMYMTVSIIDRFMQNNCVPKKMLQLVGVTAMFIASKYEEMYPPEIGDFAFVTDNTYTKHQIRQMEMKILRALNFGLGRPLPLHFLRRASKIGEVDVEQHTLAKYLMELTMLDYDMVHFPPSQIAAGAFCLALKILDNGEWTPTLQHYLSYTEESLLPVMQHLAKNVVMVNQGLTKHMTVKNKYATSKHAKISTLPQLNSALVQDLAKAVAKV
Briefly: Radioactive endpoint kinase assay with GST-CDK1-Cyclin B. Particulars: radioactive gamma-ATP, 30 min at 30° C., histone H1 positive control. The class given is biochemical.

Data set [4] has as its target T3, CDK2/Cyclin A (Homo sapiens, UniProt P24941).
T3 construct: made in house; host or cells: E. coli
Briefly: Real-time fluorescence kinase assay with recombinant active CDK2/Cyclin A. Format: biochemical. As to the method: (§1) In order to characterize CDKACT-H1 biosensor in vitro, we first asked whether it could be used to monitor recombinant kinase activity in a real-time assay.
(§2) Fluorescence kinase assays were performed in 96-well plates in a thermostated chamber (Polarstar BMG) at 30° C. in 200 ul phosphate buffer saline, pH 7.2, 150 mM NaCl, in the presence of 5 mM MgCl2, 0.5 mM ATP, except when stated otherwise. The fluorescence of Cy3-labelled CDKACTH1 with recombinant CDK/Cyclin complexes or with cell extracts was monitored over time. Changes in Cy3 fluorescence emission were recorded at 590 nm following excitation at 544 nm. In all experiments, the fluorescence of CDKACTH1-Cy3 alone was substracted from all other values. Data analysis and curve fitting were performed using the GraFit Software (Erathicus Ltd).
as §1
In vitro characterization was performed as described in Example 2. […] Assays were performed at 30° C. for 1600s. Fluorescence emission of Cy5 was measured at 675 nm following excitation at 645 nm on Polarstar™ fluorimeter.
Assays were performed at 30° C. for 1600s. Fluorescence emission of Cy3 was measured at 590 nm following excitation at 544 nm on Polarstar™ fluorimeter.

In data set [5] the target is T4, CDK1/Cyclin B (Homo sapiens, UniProt P06493).
T4 construct: made in house; host or cells: E. coli
T4 sequence (P06493 whole entry, species assumed): as the sequence (P06493 whole entry, species assumed) above
T4 sequence (P14635 whole entry partner, species assumed): as the sequence (P14635 whole entry partner, species assumed) above
The data set can be described thus: Real-time fluorescence kinase assay with recombinant CDK1/Cyclin B. Format: biochemical. The protocol:
as §2
(§3) To address the issue of specificity, we asked whether other kinases could phosphorylate and thereby affect the fluorescence of CDKACTH1. We first examined CDK1/Cyclin B and CDK4/Cyclin D (FIGS. 3A and B).

In data set [6] the target is Plk1 (Homo sapiens, UniProt P53350). The data set can be described thus: Real-time fluorescence kinase assay with Plk1 kinase (specificity). Format: biochemical. Particulars: 25 nM CDKACTH1, 25, 50, 75 nM Plk1. As to the method: as §2, §3
Chain of Plk1 (P53350 whole entry): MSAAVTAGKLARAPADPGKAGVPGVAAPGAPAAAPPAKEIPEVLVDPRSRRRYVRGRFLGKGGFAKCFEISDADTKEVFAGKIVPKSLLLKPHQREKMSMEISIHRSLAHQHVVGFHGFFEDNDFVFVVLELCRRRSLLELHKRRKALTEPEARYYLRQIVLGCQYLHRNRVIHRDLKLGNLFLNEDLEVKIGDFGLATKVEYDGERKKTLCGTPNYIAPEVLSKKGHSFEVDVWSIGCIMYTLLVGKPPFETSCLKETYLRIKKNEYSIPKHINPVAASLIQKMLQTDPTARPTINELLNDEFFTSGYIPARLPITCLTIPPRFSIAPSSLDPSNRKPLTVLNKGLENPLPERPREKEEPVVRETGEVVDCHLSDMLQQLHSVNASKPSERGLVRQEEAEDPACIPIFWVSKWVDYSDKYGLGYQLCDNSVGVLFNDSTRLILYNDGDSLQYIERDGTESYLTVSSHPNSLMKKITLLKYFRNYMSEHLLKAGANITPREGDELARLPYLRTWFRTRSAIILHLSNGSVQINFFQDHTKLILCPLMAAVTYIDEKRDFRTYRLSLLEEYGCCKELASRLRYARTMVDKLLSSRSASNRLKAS
Data set [7] addresses Plk3 (Homo sapiens, UniProt Q9H4B4). Briefly: Real-time fluorescence kinase assay with Plk3 kinase (specificity). Format: biochemical. The following applies: 25 nM CDKACTH1, 25, 50, 75 nM Plk3. The protocol: as §2, §3
The target of data set [8] is T5, CDK4/Cyclin D (Homo sapiens, UniProt P11802).
T5 construct: made in house; host or cells: E. coli
T5 sequence (P11802 whole entry, species assumed): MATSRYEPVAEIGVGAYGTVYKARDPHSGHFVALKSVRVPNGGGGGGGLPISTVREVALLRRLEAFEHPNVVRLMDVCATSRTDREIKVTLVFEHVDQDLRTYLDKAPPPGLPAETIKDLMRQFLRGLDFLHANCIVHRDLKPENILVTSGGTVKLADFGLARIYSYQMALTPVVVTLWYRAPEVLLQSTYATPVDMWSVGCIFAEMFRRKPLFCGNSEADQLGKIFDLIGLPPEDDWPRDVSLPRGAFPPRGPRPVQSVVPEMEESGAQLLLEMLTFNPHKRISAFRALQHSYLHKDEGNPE
T5 sequence (P24385 whole entry partner, species assumed): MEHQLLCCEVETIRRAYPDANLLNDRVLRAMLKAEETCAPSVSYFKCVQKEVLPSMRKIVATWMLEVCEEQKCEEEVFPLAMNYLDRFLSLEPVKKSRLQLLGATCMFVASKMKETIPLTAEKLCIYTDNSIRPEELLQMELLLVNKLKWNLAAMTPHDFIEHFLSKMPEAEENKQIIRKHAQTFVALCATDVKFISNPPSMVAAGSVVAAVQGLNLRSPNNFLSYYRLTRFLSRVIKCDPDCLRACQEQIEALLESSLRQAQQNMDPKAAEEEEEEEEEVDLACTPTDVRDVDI
Briefly: Real-time fluorescence kinase assay with recombinant CDK4/Cyclin D. The class given is biochemical. Particulars: dependent on MgCl2/ATP. As to the method:
as §2, §3

Chain of Plk3 (Q9H4B4 whole entry, species assumed): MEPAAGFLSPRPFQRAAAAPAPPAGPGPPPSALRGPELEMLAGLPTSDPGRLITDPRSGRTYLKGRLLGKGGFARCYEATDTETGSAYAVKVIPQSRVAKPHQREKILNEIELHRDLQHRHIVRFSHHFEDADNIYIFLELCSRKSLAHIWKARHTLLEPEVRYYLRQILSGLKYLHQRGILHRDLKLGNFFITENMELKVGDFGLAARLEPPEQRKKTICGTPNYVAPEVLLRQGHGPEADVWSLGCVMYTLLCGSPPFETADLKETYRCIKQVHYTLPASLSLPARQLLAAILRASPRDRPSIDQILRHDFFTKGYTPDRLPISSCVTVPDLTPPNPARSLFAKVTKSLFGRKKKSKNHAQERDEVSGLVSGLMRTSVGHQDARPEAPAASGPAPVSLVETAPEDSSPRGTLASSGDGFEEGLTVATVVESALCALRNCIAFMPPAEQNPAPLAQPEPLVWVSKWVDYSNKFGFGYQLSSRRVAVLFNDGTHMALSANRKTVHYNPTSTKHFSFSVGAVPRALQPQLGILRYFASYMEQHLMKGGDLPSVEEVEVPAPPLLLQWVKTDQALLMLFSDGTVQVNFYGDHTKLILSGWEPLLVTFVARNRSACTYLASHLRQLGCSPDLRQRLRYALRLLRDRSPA

B1: CDKACTH1 (protein)
chain: GEVVDSHLSDMLQQLHSVNASKPSERGLVRQEEAEDPASIPIFWVSKWVDYSDKYGLGYQLSDNSVGVLFNDSTRLILYNDGDSLQYIERDGTESYLTVSSHPNSLMKKITLLKYFRNYMSEHLLKAGANITPREGDELARLPYLRTWFRTRSAIILHLSNGSVQINFFQDHTKLILSPLMAAVTYIDEKRDFRTYRLSLLEEYGSSKELASRLRYARTMVDKLLSSRSASNRLKASPGAGGTGGLPGGGGCSTPKKAKKL
modifications: left off: a dimerising Fc or GST
As to B1, the “solubility upon removal of the GST tag” value in data set [1] is “complete precipitation”. Moreover, the “phosphorylation of the biosensor in standard radioactive kinase assay” value in data set [2] and in data set [3] was “is phosphorylated” throughout. The “sensor concentration giving the best response” value in data set [4] (for 25-50 nM CDK2/CyclinA) was found to be 25 nM. Moreover, in data set [5], the “phosphorylation of the biosensor by the kinase (fluorescence assay)” value is “indeed phosphorylated”. For the same molecule, in data set [5] (for 50-100 nM CDK1/Cyclin B), the “sensor concentration giving the optimal response” value was 10 nM. The “change in CDKACTH1 fluorescence induced by the kinase” value in data set [6] is recorded as “did not induce any significant changes”; in data set [7], “did not induce any significant changes”; in data set [8], “reminiscent of CDK2/Cyclin A”.

B2: unlabelled sensor: CDKACTH1 biosensor without fluorescent label, used as competitive substrate (protein)
chain: B1 chain
modifications: left off: a dimerising Fc or GST
Consider B2, for which, in data set [4] (25 nM CDKACTH1-Cy3, 25 nM CDK2/Cyclin A, 25 or 100 nM unlabelled CDKACTH1, 25 or 500 nM histone), the “competition assay: effect on phosphorylation of CDKACTH1” value is recorded as “prevented full phosphorylation”.
